Measurements taken from US11939397B2, “ENTPD2 antibodies, combination therapies, and methods of using the antibodies and combination therapies” (Novartis AG, priority 2018, dated 2024).

B1: mAb17: hybridoma-derived lead inhibitory anti-human ENTPD2 mAb (antibody, V domains shown)
VH: EVQLQQFGAELVKPGASVKISCKASGYTFTDYNMDWVKQSHGKSLEWIGDINPKYDISTYNQQFKGKATLTVDKSSSTAYMELRSLTSEDTAVYYCARRGFFLYYGINYYYFDVWGAGTTVTVSS
VL: QIVLTQSPAIMSASLGEEITLTCSASSSVSYIHWYQQKSGTSPTLLIYSTSNLASGVPSRFSGSGSGTFYSLTISSVEAEDAADYYCHQWSSYPWTFGGGTKLEIK

What was measured:
[1] = tested on: human ENTPD2 engineered B16LM3 clone B5 tumor; assay: Human ENTPD2 engineered B16LM3 clone B5 xenograft model, combination with A2AR antagonist NIR178; type: in vivo; settings: NIR178 p.o. 4 days on and 3 days off at either 50 or 200 mg/kg with isotype control 10 mg/kg
Description: Human ENTPD2-engineered B16LM3 clone B5 was established in female C57BL/6 mice by subcutaneous injection of 0.5×10^6 cells into the right flank of each mouse. Once tumors reached approximately 50 mm^3, mice were randomized according to tumor volume into treatment groups (n=8 per group). Mice received an intravenous (i.v.) treatment of either anti-ENTPD2 mAb1 at a final dose of 10/mg/kg or a non-specific human IgG1 isotype control 10 mg/kg on day 1 of study. NIR178 was administered per os (p.o.) for 4 days on and 3 days off, starting at the beginning of study at either 50 mg/kg or 200 mg/kg. All doses were adjusted to individual mouse body weights. The study was carried out for thirteen days post treatment initiation and tumor volumes were assessed every other day to assess efficacy.

[2] = target: T1, ENTPD2 (Homo sapiens, UniProt Q9Y5L3); assay: Hybridoma mAb screen, cell-based assay for inhibition of ATP hydrolysis by ENTPD2; settings: hybridoma-derived mAbs
T1 sequence (Q9Y5L3 1-495): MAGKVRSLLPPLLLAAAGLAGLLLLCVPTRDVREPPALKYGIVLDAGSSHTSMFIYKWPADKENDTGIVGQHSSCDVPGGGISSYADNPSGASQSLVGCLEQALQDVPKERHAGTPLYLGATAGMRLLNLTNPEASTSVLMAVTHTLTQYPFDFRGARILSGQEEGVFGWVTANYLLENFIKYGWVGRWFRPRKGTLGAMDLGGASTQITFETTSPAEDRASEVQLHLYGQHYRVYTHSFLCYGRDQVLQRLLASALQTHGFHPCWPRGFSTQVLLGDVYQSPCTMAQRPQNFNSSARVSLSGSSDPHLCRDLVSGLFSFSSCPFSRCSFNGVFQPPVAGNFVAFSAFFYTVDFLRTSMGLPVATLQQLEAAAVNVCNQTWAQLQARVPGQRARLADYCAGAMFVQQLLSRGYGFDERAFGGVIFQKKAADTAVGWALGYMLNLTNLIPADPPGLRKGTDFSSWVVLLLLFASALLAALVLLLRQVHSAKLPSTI
Source text: Hybridoma-derived mAbs were screened in a cell-based assay for inhibition of ATP hydrolysis by ENTPD2.

[3] = target: T2, recombinant human ENTPD2 (residues 29-462) (Homo sapiens, UniProt Q9Y5L3); assay: Biochemical human ENTPD2 functional assay (Transcreener ADP2 TR-FRET); settings: FIG. 15
T2 construct: residues 29-462 of human or cyno ENTPD2 were cloned into expression vector; GP67 signal peptide (N); made in house; host or cells: High Five (Trichoplusia ni) insect cells, baculovirus
T2 sequence (Q9Y5L3 29-462): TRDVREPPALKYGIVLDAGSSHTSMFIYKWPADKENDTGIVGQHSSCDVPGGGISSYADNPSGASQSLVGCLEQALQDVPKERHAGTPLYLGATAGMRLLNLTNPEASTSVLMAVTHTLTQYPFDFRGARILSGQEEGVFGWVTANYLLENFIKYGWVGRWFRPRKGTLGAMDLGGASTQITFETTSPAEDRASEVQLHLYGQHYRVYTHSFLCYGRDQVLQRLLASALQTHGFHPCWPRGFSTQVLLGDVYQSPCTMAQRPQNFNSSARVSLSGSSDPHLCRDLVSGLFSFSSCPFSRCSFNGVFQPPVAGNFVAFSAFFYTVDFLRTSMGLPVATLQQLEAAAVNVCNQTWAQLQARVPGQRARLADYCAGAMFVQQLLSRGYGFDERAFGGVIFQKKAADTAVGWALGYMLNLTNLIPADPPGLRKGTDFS
Source text: Biochemical and cell-based functional assays were developed in-house to understand functional impact of anti-ENTPD2 Abs against purified extracellular domain of ENTPD2 (residues 29-462), as well as against the fully intact protein in the context of the native cell-based conformation. ENTPD2 hydrolyzes ATP to ADP, which can subsequently be detected using the HTRF Transcreener ADP2 TR-FRET Red Assay (BellBrook Labs, Madison, WI) where ENTPD2-produced ADP would compete with the ADP Tracer for binding to the anti-ADP-Tb antibody. The resulting signal is inversely proportional to the concentration of ADP in the sample. […]
HTRF signal (Emission at 620 nm and 665 nm) was assessed in both assays using the Envision plate reader in HTRF mode (Perkin Elmer, Waltham, MA). HTRF ratio was determined using the following formula: HTRF ratio=R=Emission at 665 nm/Emission at 620 nm×10,000. Subsequently % Residual Activity and % Inhibition were determined as follows:
Where R0% is the HTRF ratio of the negative control (0% enzyme activity), and R100% is the HTRF ratio of the positive control (100% enzyme activity). Data were analyzed in Microsoft Excel and graphed using GraphPad's Prism 7.0 software and IC50 values were obtained using non-linear regression, log (agonist) vs. response-variable slope (four parameters) analysis.

Row | Molecule | anti-tumor efficacy, non-specific isotype control and NIR178 [1] | inhibition of ATP hydrolysis by ENTPD2 (screen outcome) [2] | inhibition of the catalytic activity of the recombinant human ENTPD2 [3]
1 | Nc1nc(-n2cccn2)nc(-n2cccn2)c1Br [NIR178, 5-bromo-2,6-di-(1H-pyrazol-1-yl)pyrimidine-4-amine] | No significant anti-tumor efficacy | – | –
2 | B1 | – | lead inhibitory | potently inhibit
